Measurements reported in patent publication US9487562B2, “Stabilized polypeptides as regulators of RAB GTPase function” (President and Fellows of Harvard College, priority 2011, dated 2016).
Entries after “also recorded” stand apart in the source; their conditions may differ. Bridge positions count the residues as written; N and C are the ends. Square brackets hold non-standard residues; d marks the D form. Ends that are not written are not given here. S5 = C=CCCC[C@](C)(N)C(=O)O

T1: RAB25 (Homo sapiens, UniProt P57735)
T1 construct: RAB25 (residues E7-Q180) was expressed with an N-terminal GST- and hexahistidine tag; made in house; host or cells: Escherichia coli BL21(DE3) pLysS
T1 sequence (P57735 7-180): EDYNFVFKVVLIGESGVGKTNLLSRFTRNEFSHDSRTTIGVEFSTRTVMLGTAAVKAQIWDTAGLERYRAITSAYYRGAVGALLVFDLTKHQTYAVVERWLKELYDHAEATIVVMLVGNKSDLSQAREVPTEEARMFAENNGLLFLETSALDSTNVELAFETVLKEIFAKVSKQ

T2: RAB11 (Homo sapiens, UniProt P62491)
T2 construct: RAB11 (residues 1-175) was expressed with an N-terminal GST-tag with an internal thrombin cleavage site; GST (thrombin cleavage site between tag and RAB11) (N); made in house; host or cells: Escherichia coli BL21(DE3) pLysS
T2 sequence (P62491 1-175): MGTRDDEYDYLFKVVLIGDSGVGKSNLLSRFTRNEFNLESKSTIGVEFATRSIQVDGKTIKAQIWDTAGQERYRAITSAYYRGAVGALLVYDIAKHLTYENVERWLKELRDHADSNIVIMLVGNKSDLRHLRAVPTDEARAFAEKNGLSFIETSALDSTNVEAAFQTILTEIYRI

T3: RAB25 (Homo sapiens, UniProt P57735)
T3 construct: incubated in pre-cleared lysate from OVCAR3 cells, which express RAB11 and RAB25; endogenous in cells; host or cells: OVCAR3
T3 sequence (P57735 1-213): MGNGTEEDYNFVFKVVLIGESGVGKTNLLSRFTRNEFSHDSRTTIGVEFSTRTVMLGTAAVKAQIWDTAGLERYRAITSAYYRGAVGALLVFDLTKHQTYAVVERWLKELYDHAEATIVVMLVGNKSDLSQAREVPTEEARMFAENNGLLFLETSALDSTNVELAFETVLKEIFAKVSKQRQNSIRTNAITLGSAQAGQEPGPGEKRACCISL

T4: RAB11 (Homo sapiens, UniProt P62491)
T4 construct: incubated in pre-cleared lysate from OVCAR3 cells, which express RAB11 and RAB25; endogenous in cells; host or cells: OVCAR3
T4 sequence (P62491 1-216): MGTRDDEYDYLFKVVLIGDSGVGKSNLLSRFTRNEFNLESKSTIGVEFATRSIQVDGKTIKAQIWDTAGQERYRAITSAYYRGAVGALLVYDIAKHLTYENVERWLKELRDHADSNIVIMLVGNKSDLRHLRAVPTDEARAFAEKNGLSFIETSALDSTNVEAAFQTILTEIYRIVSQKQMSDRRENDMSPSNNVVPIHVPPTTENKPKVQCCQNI

T5: GST-H6-RAB25 (Homo sapiens, UniProt P57735)
T5 construct: RAB25 (residues E7-Q180) was expressed with an N-terminal GST- and hexahistidine tag; made in house; host or cells: Escherichia coli BL21(DE3) pLysS
T5 sequence (P57735 7-180): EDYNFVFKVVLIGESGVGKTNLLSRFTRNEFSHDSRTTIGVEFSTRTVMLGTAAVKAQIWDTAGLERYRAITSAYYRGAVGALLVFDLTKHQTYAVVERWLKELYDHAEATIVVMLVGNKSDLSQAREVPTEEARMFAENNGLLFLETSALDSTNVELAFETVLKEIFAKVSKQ


Key:
RAB25 [1] = target: T1, RAB25; experiment: Fluorescence polarization binding of FITC-FIP/FITC-RFP peptides to RAB25; conditions: FITC peptide 15 nM
Experimental: (§1) RAB11/25 protein binding assays were performed by incubating FITC-FIP or FITC-RFP (stapled FIP derivatives) peptides (15 nM) with three-fold dilutions of recombinantly-expressed, purified RAB11, RAB25 or a various epitope-tagged version of either in protein-binding buffer (25 mM Tris-HCl, pH 8.0, 150 mM NaCl, 1 mM EDTA, 1 mM DTT, 10 mM MgCl2, 10 mM GTP). Dilutions and incubations were made in 384-well, black flat-bottom plates (Corning) to a total volume of 40 μL and equilibrated for 60 minutes. Polarization was measured on a Spectramax-M5 multi-label plate reader with λex=485 nm and λem=525 nm. Polarization was calculated according to the standard equation: P=(V−H)/(V+H), where P=polarization, V=vertical emission intensity and H=horizontal emission intensity. Kd values were determined by fitting data to a variable-slope sigmoidal binding curve using Prizm 4 graphing software.
(§2) RAB11 and RAB25 proteins were expressed and purified in Escherichia coli strain BL21(DE3) pLysS (Stratagene) as epitope-tagged fusion proteins in various vectors (Novagen). RAB25 (residues E7-Q180) was expressed with an N-terminal GST- and hexahistidine tag with internal thrombin and TEV cleavage sites (GST-H6-RAB25) (SEQ ID NO: 86) in a pET41-1 vector (Novagen) or with an N-terminal hexahistidine tag alone with an internal thrombin cleavage site (H6-RAB25) (SEQ ID NO: 86) in a pET28 vector (Novagen). FIP3 protein (residues 649-756) was expressed with an N-terminal GST-tag with an internal TEV cleavage site (GST-FIP3) in a pGEX6p-1 vector (Novagen). RAB11 (residues 1-175) was expressed with an N-terminal GST-tag with an internal thrombin cleavage site in a pGEX5x-1 vector (Novagen). Transformed bacteria was grown at 37° C. until an OD600=0.8 was reached, at which point the culture was induced with 0.5 mM isopropyl β-D-1-thiogalactopyranoside (IPTG). Induced cells were grown at 30° C. for 6 hours, pelleted and lysed in binding buffer (25 mM Tris-HC;, pH 8.0, 150 mM NaCl, 1 mM EDTA, 1 mM DTT, 10 mM MgCl2, 10 mM GTP) supplemented with a complete protease inhibitor tablet (Roche) by sonication on ice. The lysate was centrifuged at 14,000 rpm to clear insoluble matter prior to loading onto Ni-NTA resin (Qiagen) for hexahistdine-tagged constructs or on GST-bind agarose resin (Biorad) for GST-tagged constructs. The protein-bound bead slurry was washed 4× with ˜20 mL of buffer and retained protein was eluted with either 250 mM imidazole or 20 mM glutathione in buffer for H6-(SEQ ID NO: 86) or GST-proteins, respectively. The eluent was concentrated using a 30 kD exclusion filter and purified by size-exclusion chromatography on a Superdex-75 Column (Amersham Pharmacia Biotech). Fractions containing purified protein were pooled, concentrated and dialyzed into binding buffer or other similar buffer for specific biochemical assays.

U2OS osteosarcoma cells = experiment: Quantitative epifluorescence microscopy of cell penetration; format: cell-based; conditions: 5 μM FITC-RFPs for 12 hours, DMEM 10% FBS
Experimental: U2OS osteosarcoma cells were treated with 5 μM FITC-RFPs for 12 hours in Dulbecco's Modified Eagle Medium (DMEM) (Gibco®) containing 10% fetal bovine serum (FBS). Cells were washed, then stained with Hoescht nuclear dye. Automated fluorescence microscopy was performed at 20× on an IX5000 epifluorescence microscope. Nuclear staining is shown in the top panel and FITC is show in the bottom panel (FIGS. 16 and 17B). Quantification was performed using MetaXpress software (FIG. 18A).

RAB11 [2] = target: T2, RAB11; experiment: Fluorescence polarization binding of FITC-FIP/FITC-RFP peptides to RAB11; conditions: FITC peptide 15 nM, fluorescence polarization
Experimental: Fluorescence polarization (FP) was used to measure FIP peptide binding to RAB11 and RAB25 proteins. […] This indicated specificity in the binding measurement, as this subtle change would be expected to perturb binding.
as §1, §2

[3] = Circular dichroism spectra / percent helicity; format: physicochemical; conditions: calculated from the absorbance at 222 nm
Experimental: We next investigated the structural stability of the RFPs by obtaining circular dichroism (CD) spectra for each peptide. All measurements were made at 20° C. in water with peptides at 50 μM. […] By comparison, stapled FIP peptides (RFPs) show helical CD spectra indicated by minima at approximately 208 and 222 nm (FIG. 11B).
A circular dichroism spectrometer (Jasco J-710, Japan) was used to determine the α-helical content of all peptides. Peptides were dissolved in water to a final concentration of 50 μM in a quartz cuvette with a path length of 1 cm. Absorbance values were taken at 1 nm intervals between 190 and 260 nm for buffer alone and for peptide solutions. The background (buffer) spectrum was subtracted from experimental spectra, which were subsequently subjected to baseline-normalization and curve-smoothing within the spectrometer software. Percent-helicity was calculated from the absorbance at 222 nm using helical models as previously reported in Chen Y H et al., Biochemistry, 13, 3350-9 (1974).

[4] = Peptide thermal stability by CD at 222 nm; format: physicochemical; conditions: CD at 222 nm over 10-90° C.
Experimental: Peptide thermal stability was measured by scanning the peptide CD at 222 nm over a temperature range (10-90° C.). A sigmoidal unfolding curve was apparent for helices of unmodified FIP peptides (FIP4) with a Tm of ˜34° C. (FIG. 12A).
Peptide thermal stability experiments were performed in a similar manner to circular dichroism experiments in Example 5. Peptide solutions were cooled to 10° C. in a temperature controlled CD-chamber and circular dichroism absorbance at 222 nm was measured at 1 degree intervals while the solution was heated to 90° C. 222 nm CD values were plotted as a function of temperature and fitted to a sigmoidal denaturation curve, with the half-maximal temperature representing the Tm.

RAB25 [5] = experiment: Fluorescence polarization binding of FITC-FIP/FITC-RFP peptides to RAB25
Experimental: as §1, §2

OVCAR3 cells = experiment: Transwell migration assay; format: cell-based, Human; conditions: 15 μM for 24 hours, collagen-coated 8-micron transwells
Experimental: OVCAR3 cells were seeded on collagen-coated, 8-micron transwells in DMEM media. Cells were treated with 15 μM RFP26, RFP31 or vehicle for 24 hours during cell migration. The cells in the wells were fixed, and migrating cells were stained and counted (FIGS. 25B and 25C).

RAB25 [6] = target: T3, RAB25; experiment: Biotin-RFP pulldown from OVCAR3 lysate, Western blot for RAB25; format: binding; conditions: relative to mock or negative control RFP31
Experimental: (§3) Optimized RFP peptides were synthesized with an amino-terminal diethyleneglycol-biotin moiety. The peptides were immobilized on streptavidin-agarose resin/beads and incubated in pre-cleared lysate from OVCAR3 cells, which express RAB11 and RAB25. The beads were washed, and the protein was eluted and used for Western blot analysis to identify retained RAB11 and RAB25 (FIG. 24). […] The signal is similar to the relative binding affinities and ALPHASCREEN® IC50 observed for RFP peptides.

RAB11 [7] = target: T4, RAB11; experiment: Biotin-RFP pulldown from OVCAR3 lysate, Western blot for RAB11; format: binding; conditions: relative to mock or negative control RFP31
Experimental: as §3

[8] = test system: AKT phosphorylated at S473 (p473-AKT); experiment: AKT phosphorylation at S473 in OVCAR3 cells (Western blot); format: cell-based, Human; design: dose or concentration left out as unconfirmed; conditions: OVCAR3 cells treated with RFP26 for 24 hours
Description: AKT, also known as Protein Kinase B (PKB), is a serine/threonine-specific protein kinase that is associated with tumor cell survival, proliferation, and invasiveness. The activation of AKT is also one of the most frequent alterations observed in human cancer and tumor cells, thus deregulation of the AKT plays a pivotal role in tumor biology (Stuenaes et al., Br. J. Pharmacol. (2010) 160(1):116-29). Full AKT activation requires phosphorylation by activating kinases on two residues: threonine 308 (T308) and serine 473 (S473). Hyperactivation of AKT is associated with resistance to apoptosis as well as increased cell proliferation and metabolism. […] To assess the affect of RFP26 on AKT phosphorylation in OVCAR3 cells, OVCAR3 cells were treated with […] RFP26 for 24 hours. The cells were then lysed, and the lysate was used in a Western blot to detect AKT phosphorylated at S473 (p473-AKT) and total AKT (FIG. 25A).

GST-H6-RAB25 = target: T5, GST-H6-RAB25; experiment: ALPHASCREEN competition assay (biotin-RFP14 / GST-H6-RAB25 complex); format: binding; conditions: competitor added to pre-formed biotin-RFP14/GST-H6-RAB25 complex
Description: A nano-bead based […] assay (ALPHASCREEN®) was used to qualitatively assess protein binding (peptide-RAB or protein-RAB association) and quantitatively assess inhibitor ranking (competition assays). […] FIG. 13B schematizes the ALPHASCREEN® (binding) strategy. If an RFP (or FIP protein/peptide) conjugated to biotin (bound to a donor bead, in this case streptavidin) interacts with RAB conjugated to GST (bound to an acceptor bead, in this case, anti-GST), there is a proximity-dependent transfer of chemical energy, resulting in light production.
For competition assays, complexes consisting of biotin-FIP and GST-RAB proteins or biotin-RFP and GST-RAB peptides with free RFPs, unmodified peptides, and FIP proteins were incubated.
In FIGS. 13 and 14, the binding complex is pre-formed with Biotin-RFP14 and GST-H6-RAB25 (SEQ ID NO: 86). Soluble competitors were then added after an incubation time (30 min) across a dose range. These competitors are FIP3 (expressed protein), and Trp-labeled derivatives of RFP14, RFP16 and RFP17. After another incubation of 30 min the streptavidin donor beads and Ni-NTA acceptor beads are added and the luminescent signal is measured approximately 30 min later (total of ˜1.5 hr incubation time).

Molecule	binding affinity to RAB25 (RAB25 [1])	cell penetration (U2OS osteosarcoma cells)	binding affinity to RAB11 (RAB11 [2])	theoretical percent helicity [3]	Tm [4]	relative affinity RAB11 versus RAB25 (selectivity) (RAB25 [5])	OVCAR3 cellular migration (OVCAR3 cells)	binding to and retention of RAB25 (RAB25 [6])	binding to and retention of RAB11 (RAB11 [7])	AKT phosphorylation at S473 [8]	competition for RAB25 binding (IC50) (GST-H6-RAB25)
RFP14: stapled FIP peptide, SEQ ID NO: 75 (RQVRELENYIDRLLV[S5]VNE[S5]TPNILRIPR; staple 16-20; not fully specified (C-terminus))	highest binding affinity	lowest cell penetration	highest binding affinity	highest helical content	64 °C						
RFP26: stapled FIP peptide containing an E-R mutation to increase overall charge, SEQ ID NO: 83 (RINFRLQN[S5]IDR[S5]IVRINETNPSILRVK; staple 9-13; not fully specified (C-terminus))	retained binding affinity; also recorded: high affinity		high affinity			some selectivity for RAB25	inhibited OVCAR3 cellular migration	significant binding to and retention	significant binding to and retention	decreased AKT phosphorylation at S473	
FIP3 protein: expressed FIP3 protein (652-756), soluble competitor in … (protein, UniProt O75154 652-756, looked up, fragment, GST tag) QEYHSRARESELEQEVRRLKQDNRNLKEQNEELNGQIITLSIQGAKSLFSTAFSESLAAEISSVSRDELMEAIQKQEEINFRLQDYIDRIIVAIMETNPSILEVK											significantly higher IC50
